# Results reported in patent publication US20180037631A1 (Bristol-Myers Squibb, published 2018).
# Changes are numbered by the printed parent chain.
# B1: E15 (designed binder)
# 10Fn3 domain: MGVSDVPRDLEVVAATPTSLLISWQVPRPMYQYYRITYGETGGNSPVQEFTVPHDLRTATISGLKPGVDYTITVYAVTDSYNPATHEYKYHQTPISINYRTEIDKPSQ
# B2: E14 (designed binder)
# 10Fn3 domain: B1 10Fn3 domain with H54Y, L56V, R57T
# B3: E17 (designed binder)
# 10Fn3 domain: MGVSDVPRDLEVVAATPTSLLISWQVPRPMYQYYRITYGETGGNSPVQEFTVPGMVHTATISGLKPGVDYTITVYAVTDHKPHADGPHTYHESPISINYRTEIDKPSQ
# B4: E16 (designed binder)
# 10Fn3 domain: B3 10Fn3 domain with G54Y, M55D, V56L, H57V
# B5: E22 (designed binder)
# 10Fn3 domain: B1 10Fn3 domain with Q25S, V26T, P27G, P29T, M30T, R57D
# B6: E24 (designed binder)
# 10Fn3 domain: B1 10Fn3 domain with H54G, D55Q, L56V, R57P
# B7: E18 (designed binder)
# 10Fn3 domain: B3 10Fn3 domain with Q25F, P27T, R28H, P29V, M30A, M55G, V56L, H57S, H80Y
# B8: E20 (designed binder)
# 10Fn3 domain: MGVSDVPRDLEVVAATPTSLLISWMTSPSVYQYYRITYGETGGNSPVQEFTVPGPVQTATISGLKPGVDYTITVYAVTDYKEHQHAPHQYTAHPISINYRTEIDKPSQ
# B9: E30 (designed binder)
# 10Fn3 domain: MGVSDVPRDLEVVAATPTSLLISWAIGTIVYQYYRITYGETGGNSPVQEFTVPAGVYTATISGLKPGVDYTITVYAVTDYYDWATHEYNYHTAPISINYRTEIDKPSQ
# B10: E28 (designed binder)
# 10Fn3 domain: MGVSDVPRDLEVVAATPTSLLISWNPGSKSYQYYRITYGETGGNSPVQEFTVPGGVRTATISGLKPGVDYTITVYAVTDFYNPDTHEYLYNQYPISINYRTEIDKPSQ
# B11: E25 (designed binder)
# 10Fn3 domain: MGVSDVPRDLEVVAATPTSLLISWGYQSGGYTYYRITYGETGGNSPVQEFTVPHDLRTATISGLKPGVDYTITVYAVTDYAYKEYQEHPISINYRTEIDKPSQ
# B12: E19 (designed binder)
# 10Fn3 domain: B3 10Fn3 domain with Q25E, V26T, P27E, R28S, P29N, M30A, M55Q, V56I, H57Y, H80Y
# B13: E27 (designed binder)
# 10Fn3 domain: MGVSDVPRDLEVVAATPTSLLISWSKGSKSYQYYRITYGETGGNSPVQEFTVPYHVYTATISGLKPGVDYTITVYAVTDYYNPATYEYIYLTTPISINYRTEIDKPSQ
# B14: E29 (designed binder)
# 10Fn3 domain: B13 10Fn3 domain with S25Q, K26P, S28T, K29T, S30H, H55D, V56L, Y57M, A84N
# B15: E31 (designed binder)
# 10Fn3 domain: B13 10Fn3 domain with S25T, K26Y, G27N, S28D, K29G, H55A, Y80F, L91H
# B16: E23 (designed binder)
# 10Fn3 domain: MGVSDVPRDLEVVAATPTSLLISWQVPRPMYQYYRITYGETGGNSPVQEFTVPYDVITATISGLKPGVDYTITVYAVTDMMHVEYAEYPISINYRTEIDKPSQ
# B17: E26 (designed binder)
# 10Fn3 domain: B16 10Fn3 domain with Q25W, V26I, P27G, R28I, M30V, V56G, I57K
# B18: E86 (designed binder)
# 10Fn3 domain: MGVSDVPRDLEVVAATPTSLLISWDSGENNYQYYRITYGETGGNSPVQEFTVPGGVRTATISGLKPGVDYTITVYAVTDYYNPKTHEYNYLTIPISINYRTEIDKPSQ
# B19: E87 (designed binder)
# 10Fn3 domain: MGVSDVPRDLEVVAATPTSLLISWGSPLIEYQYYRITYGETGGNSPVQEFTVPGGLSTATISGLKPGVDYTITVYAVTDYFNPATHEYTYHVSPISINYRTEIDKPSQ
# B20: E88 (designed binder)
# 10Fn3 domain: MGVSDVPRDLEVVAATPTSLLISWSATNKTYQYYRITYGETGGNSPVQEFTVPGGVRTATISGLKPGVDYTITVYAVTDYFNPTTHEYIYQTTPISINYRTEIDKPSQ
# B21: E54 (designed binder)
# 10Fn3 domain: MGVSDVPRDLEVVAATPTSLLISWKASYTGYNYYRITYGETGGNSPVQEFTVPRDVMTATISGLKPGVDYTITVYAVTDFYNPDTHQYTYRRIPISINYRTEIDKPSQ
# B22: E48 (designed binder)
# 10Fn3 domain: MGVSDVPRDLEVVAATPTSLLISWRSSATAYQYYRITYGETGGNSPVQEFTVPGRVYTATISGLKPGVDYTITVYAVTDFFNWATHEYIYHSTPISINYRTEIDKPSQ
# B23: E56 (designed binder)
# 10Fn3 domain: B1 10Fn3 domain with Q25Y, V26S, P27G, R28D, P29Y, M30H, R57E, S80Y, E87Y, H91E
# B24: E53 (designed binder)
# 10Fn3 domain: B1 10Fn3 domain with Q25S, P27G, R28G, P29M, M30I, H54G, D55M, L56V, R57T, S80Y
# B25: E55 (designed binder)
# 10Fn3 domain: B1 10Fn3 domain with Q25S, P27G, R28Q, P29V, M30F, H54Y, L56V, R57Y, S80Y
# B26: E50 (designed binder)
# 10Fn3 domain: B3 10Fn3 domain with Q25T, P27G, R28L, P29S, M30V, H57S, G67S, H80Y, S93Y
# B27: E46 (designed binder)
# 10Fn3 domain: MGVSDVPRDLEVVAATPTSLLISWQVGSVVYQYYRITYGETGGNSPVQEFTVPRDVLTATISGLKPGVDYTITVYAVTDYKPKPDGPHIYQAVPISINYRTEIDKPSQ
# B28: E47 (designed binder)
# 10Fn3 domain: B10 10Fn3 domain with G27A, S30D, G55Q, R57P, D84A, L89K, N91D, Q92S, Y93T
# B29: E49 (designed binder)
# 10Fn3 domain: MGVSDVPRDLEVVAATPTSLLISWHSGPREYQYYRITYGETGGNSPVQEFTVPGQVYTATISGLKPGVDYTITVYAVTDFFNPITHYYYYELTPISINYRTEIDKPSQ
# B30: E51 (designed binder)
# 10Fn3 domain: MGVSDVPRDLEVVAATPTSLLISWGGHRAVYQYYRITYGETGGNSPVQEFTVPGAVYTATISGLKPGVDYTITVYAVTDYYNPDTHEYKYHQYPISINYRTEIDKPSQ
# B31: E57 (designed binder)
# 10Fn3 domain: B30 10Fn3 domain with G25I, G26V, H27Q, R28G, A29G, V30R, A55M, Y57T, D84S, Y93T
# B32: E58 (designed binder)
# 10Fn3 domain: MGVSDVPRDLEVVAATPTSLLISWSAVRWRYQYYRITYGETGGNSPVQEFTVPGGVRTATISGLKPGVDYTITVYAVTDFYNPRTHVYIYDQFPISINYRTEIDKPSQ
# B33: E52 (designed binder)
# 10Fn3 domain: B16 10Fn3 domain with A14S, Y54G, D55G, I57R, M80Y, M81W, H82F, V83K, A86R, Y88D
# Target: T1, EGFR on the surface of human tumour cells (A431, H292) (human, UniProt P00533 25-1210)
# Test: cell-based or functional assay
row,"% inhibition of EGFR phosphorylation at 100 nM binder, cell-based assay",Binder
1,88.8%,B1
2,80.4%,B2
3,75.5%,B3
4,97.7%,B4

# Target: T1, EGFR on the surface of human tumour …
# Test: cell-based or functional assay
# Remark: another data set of the same source
row,"% inhibition of EGFR phosphorylation at 100 nM binder, cell-based assay",Binder
1,83.7%,B5
2,90.3%,B6
3,91.1%,B7
4,80.2%,B8
5,87.3%,B9
6,85.3%,B10
7,77.1%,B11
8,84.6%,B12
9,94.6%,B13
10,87.9%,B14
11,75.8%,B15
12,81.1%,B16
13,75.4%,B17

# Target: T1, EGFR on the surface of human tumour …
# Test: cell-based or functional assay
# Remark: another data set of the same source
row,"% inhibition of EGFR phosphorylation at 100 nM binder, cell-based assay",Binder
1,84.7%,B18
2,87%,B19
3,89.3%,B20

# Target: T1, EGFR on the surface of human tumour …
# Test: cell-based or functional assay
# Remark: another data set of the same source
row,"% inhibition of EGFR phosphorylation at 100 nM binder, cell-based assay",Binder
1,76.1%,B21
2,88.6%,B22
3,84.2%,B23
4,79.8%,B24
5,99.1%,B25
6,77.4%,B26
7,77%,B27
8,76.9%,B28
9,83.5%,B29
10,82.8%,B30
11,75.5%,B31
12,79.7%,B32
13,75.3%,B33
